Measurements published in IntAct's records for PubMed 24525233.

B1: Transcription cofactor vestigial-like protein 4 (Homo sapiens), Q14135 (parent)
chain: METPLDVLSRAASLVHADDEKREAALRGEPRIQTLPVASALSSHRTGPPPISPSKRKFSMEPGDEDLDCDNDHVSKMSRIFNPHLNKTANGDCRRDPRERSRSPIERAVAPTMSLHGSHLYTSLPSLGLEQPLALTKNSLDASRPAGLSPTLTPGERQQNRPSVITCASAGARNCNLSHCPIAHSGCAAPGPASYRRPPSAATTCDPVVEEHFRRSLGKNYKEPEPAPNSVSITGSVDDHFAKALGDTWLQIKAAKDGASSSPESASRRGQPASPSAHMVSHSHSPSVVS

Variants of: B1
Conditions: with tead4_human TEAD4, Q15561
Sequence of tead4_human TEAD4, Q15561 (Q15561 whole entry): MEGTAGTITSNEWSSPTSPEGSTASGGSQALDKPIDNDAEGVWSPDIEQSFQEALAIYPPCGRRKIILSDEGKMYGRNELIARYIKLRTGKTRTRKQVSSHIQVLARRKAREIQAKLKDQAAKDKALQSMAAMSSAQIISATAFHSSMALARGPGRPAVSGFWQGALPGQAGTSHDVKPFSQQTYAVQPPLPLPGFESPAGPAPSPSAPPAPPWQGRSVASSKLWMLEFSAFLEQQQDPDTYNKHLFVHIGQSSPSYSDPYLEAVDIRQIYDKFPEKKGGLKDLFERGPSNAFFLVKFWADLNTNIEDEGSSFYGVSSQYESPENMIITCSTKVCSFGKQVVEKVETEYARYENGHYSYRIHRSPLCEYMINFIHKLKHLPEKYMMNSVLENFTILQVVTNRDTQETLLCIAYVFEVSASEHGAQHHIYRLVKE

Variant	effect of a mutation on the interaction
H212A;F213A;H240A;F241A	disrupting interaction
H240A	decreasing interaction
H240A;F241A	decreasing interaction
L245A	decreasing interaction

Variants of: B1
Conditions: with tead4_human TEAD4, Q15561
Remark: another data set of the same source

Variant	effect of a mutation on the interaction
W249A	decreasing interaction
